The target in experiment [1] is recombinant human TrkA protein (human) (UniProt P04629). The experiment is described as follows: NGF-blocking ELISA on coated human TrkA, 100 nM btNGF; mAb 5 nM.
Experiment [2] shares this target. The experiment is described as follows: NGF-blocking ELISA on coated human TrkA, 100 nM btNGF; mAb 10 nM.
Experiment [3] shares this target. The experiment is described as follows: NGF-blocking ELISA on coated human TrkA, 100 nM btNGF; mAb 20 nM.
For experiment [4] the target is unchanged. The experiment in a line: NGF-blocking ELISA on coated human TrkA, 100 nM btNGF; mAb 2.5 nM.
Experiment [5] has the same target. The experiment in a line: NGF-blocking ELISA on coated human TrkA, 100 nM btNGF; mAb 0.02 nM. On the technique in general: ELISA stands for enzyme-linked immunosorbent assay.
Experiment [6] has the same target. The experiment in a line: NGF-blocking ELISA on coated human TrkA, 100 nM btNGF; mAb 0.04 nM.
For experiment [7] the target is unchanged. The experiment in a line: NGF-blocking ELISA on coated human TrkA, 100 nM btNGF; mAb 0.08 nM.
For experiment [8] the target is unchanged. The experiment in a line: NGF-blocking ELISA on coated human TrkA, 100 nM btNGF; mAb 0.16 nM.
The target is the same in experiment [9]. The experiment in a line: NGF-blocking ELISA on coated human TrkA, 100 nM btNGF; mAb 0.63 nM.
The target is the same in experiment [10]. The experiment in a line: NGF-blocking ELISA on coated human TrkA, 100 nM btNGF; mAb 1.25 nM.
The target is the same in experiment [11]. The experiment is described as follows: NGF-blocking ELISA on coated human TrkA, 100 nM btNGF; mAb 0.31 (printed pM, two-fold series gives nM).
Experiment [12] has as its target TrkA in rat brain, dorsal root ganglia and skin tissue (rat) (UniProt P35739). The experiment is described as follows: cell-based or functional assay.
The target in experiment [13] is human TrkA receptor expressed in transfected 3T3 fibroblast cells (human) (UniProt P04629). The experiment in a line: cell-based or functional assay.
human TrkA receptor expressed in transfected 3T3 fibroblast cells (human), sequence (P04629 33-796): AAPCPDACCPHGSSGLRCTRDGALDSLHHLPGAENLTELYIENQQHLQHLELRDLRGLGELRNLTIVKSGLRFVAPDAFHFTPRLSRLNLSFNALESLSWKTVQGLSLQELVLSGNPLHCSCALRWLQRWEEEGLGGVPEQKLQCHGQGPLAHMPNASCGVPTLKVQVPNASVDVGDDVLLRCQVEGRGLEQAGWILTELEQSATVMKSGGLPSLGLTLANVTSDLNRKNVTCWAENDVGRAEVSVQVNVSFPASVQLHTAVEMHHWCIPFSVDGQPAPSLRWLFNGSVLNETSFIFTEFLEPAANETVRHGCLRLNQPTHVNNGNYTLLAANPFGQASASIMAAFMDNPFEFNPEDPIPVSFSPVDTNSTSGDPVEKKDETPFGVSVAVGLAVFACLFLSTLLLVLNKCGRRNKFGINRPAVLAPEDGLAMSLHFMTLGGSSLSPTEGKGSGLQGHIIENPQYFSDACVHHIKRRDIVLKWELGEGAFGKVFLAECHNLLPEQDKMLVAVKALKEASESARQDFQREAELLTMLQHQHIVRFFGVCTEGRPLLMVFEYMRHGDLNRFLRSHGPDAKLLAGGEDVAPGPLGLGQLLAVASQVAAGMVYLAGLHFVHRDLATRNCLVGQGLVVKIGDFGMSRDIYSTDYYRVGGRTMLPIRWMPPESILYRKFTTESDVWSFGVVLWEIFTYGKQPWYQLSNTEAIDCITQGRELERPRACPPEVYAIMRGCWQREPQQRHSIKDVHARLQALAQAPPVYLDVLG
Experiment [14] has as its target rat TrkA receptor expressed in transfected HEK293 cells (rat) (UniProt P35739). The experiment in a line: cell-based or functional assay.

recombinant human TrkA protein (human), sequence (P04629 other isoform, or with tags, fused parts or gaps limits assumed): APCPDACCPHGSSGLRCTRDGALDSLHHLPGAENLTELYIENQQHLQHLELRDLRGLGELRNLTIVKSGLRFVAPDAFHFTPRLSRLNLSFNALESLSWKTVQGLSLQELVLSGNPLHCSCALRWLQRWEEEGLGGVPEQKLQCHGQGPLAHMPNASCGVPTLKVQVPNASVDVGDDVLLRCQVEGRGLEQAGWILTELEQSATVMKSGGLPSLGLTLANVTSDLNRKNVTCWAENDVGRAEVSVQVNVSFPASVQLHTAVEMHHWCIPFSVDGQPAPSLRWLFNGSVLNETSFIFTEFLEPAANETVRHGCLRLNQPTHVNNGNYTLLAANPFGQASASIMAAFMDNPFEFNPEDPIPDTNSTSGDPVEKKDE
rat β-NGF, sequence (P25427 122-241 limits assumed): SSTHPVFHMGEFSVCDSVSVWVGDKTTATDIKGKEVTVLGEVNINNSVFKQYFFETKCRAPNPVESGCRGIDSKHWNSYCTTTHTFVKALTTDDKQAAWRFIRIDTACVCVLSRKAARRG
TrkA in rat brain, dorsal root ganglia and skin tissue (rat), sequence (P35739 33-799): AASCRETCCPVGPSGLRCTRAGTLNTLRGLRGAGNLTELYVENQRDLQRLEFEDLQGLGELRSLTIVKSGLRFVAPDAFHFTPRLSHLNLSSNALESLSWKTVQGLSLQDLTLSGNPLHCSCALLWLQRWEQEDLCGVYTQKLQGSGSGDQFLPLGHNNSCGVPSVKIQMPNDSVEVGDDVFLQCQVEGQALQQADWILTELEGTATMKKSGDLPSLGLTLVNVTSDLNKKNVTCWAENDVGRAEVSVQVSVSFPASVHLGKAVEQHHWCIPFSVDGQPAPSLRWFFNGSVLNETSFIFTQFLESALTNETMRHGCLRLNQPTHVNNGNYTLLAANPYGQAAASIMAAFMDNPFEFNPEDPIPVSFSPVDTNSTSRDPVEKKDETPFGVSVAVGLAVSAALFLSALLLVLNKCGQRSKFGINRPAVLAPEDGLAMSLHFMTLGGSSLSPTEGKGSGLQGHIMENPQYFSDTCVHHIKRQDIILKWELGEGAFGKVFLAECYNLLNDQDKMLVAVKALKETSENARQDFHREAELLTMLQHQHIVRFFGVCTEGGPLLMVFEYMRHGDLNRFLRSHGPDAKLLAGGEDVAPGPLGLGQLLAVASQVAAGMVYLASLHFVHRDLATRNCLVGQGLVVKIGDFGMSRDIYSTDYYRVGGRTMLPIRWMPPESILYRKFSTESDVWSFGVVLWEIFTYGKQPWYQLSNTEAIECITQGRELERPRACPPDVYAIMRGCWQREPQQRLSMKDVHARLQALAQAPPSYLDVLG
rat TrkA receptor expressed in transfected HEK293 cells (rat), sequence (P35739 33-799): as above

Turning to IgG1 isotype control antibody, the Absorbance 450 nm in [1] stood at 1.1; in experiment [2], 0.97; in experiment [3] it was 1.13; in [4], 1.17; in [5] it was 1.14; in experiment [6], 1.1. The Absorbance 450 nm in experiment [7] was 1.16; in experiment [8], 1.12; in experiment [9] it was 1.14; in experiment [10] it was 1.04; in experiment [11] it was 1.19.
IgG4 isotype control antibody returned a pTrkA counts per second, DRG, NGF stimulated, 10 mg/kg SC (counts per second) in experiment [12] of 483000. For the same substance, the pTrkA counts per second, DRG, baseline, 10 mg/kg SC (counts per second) in experiment [12] was 109000. In [12], the pTrkA counts per second, brain, NGF stimulated, 10 mg/kg SC (counts per second) is 507000. In [12], this substance displayed a pTrkA counts per second, brain, baseline, 10 mg/kg SC (counts per second) of 70600. This substance also displayed a pTrkA counts per second, skin, NGF stimulated, 10 mg/kg SC (counts per second) in [12] of 33300. Moreover, the pTrkA counts per second, skin, baseline, 10 mg/kg SC (counts per second) in experiment [12] came to 14500. For the same substance, the pTrkA counts per second, +mAb 1 hr (1 uM), no NGF (counts per second) in [13] was found to be 28400. In addition, the pTrkA counts per second, +mAb 24 hr (1 uM), no NGF (counts per second) in [13] stood at 28700. Moreover, the pTrkA counts per second, NGF + mAb 1 hr (1 uM) (counts per second) in experiment [13] came to 238000. Also, in [13], the pTrkA counts per second, NGF + mAb 24 hr (1 uM) (counts per second) worked out at 290000. The Absorbance 450 nm in [1] came out at 1.08; in experiment [2] it was 1.11; in experiment [3] it was 1.12; in experiment [4], 1.07; in [5] it was 1.13; in experiment [6], 1.15. Moreover, the Absorbance 450 nm in experiment [7] was found to be 1.14; in experiment [8], 1.13; in experiment [9] it was 1.13; in experiment [10], 1.03; in experiment [11] it was 1.14.
In experiment [14], “rat β-NGF (from UniProt P25427 122-241) (ligand)” yielded a pTrkA counts per second, 10 ug/mL NGF alone (mAb A column) (counts per second) of 2.13e+06; a pTrkA counts per second, 10 ug/mL NGF alone (mAb B column) (counts per second) of 4.29e+06; a pTrkA counts per second, 10 ug/mL NGF alone (mAb C column) (counts per second) of 2.81e+06; a pTrkA counts per second, 10 ug/mL NGF alone (mAb D column) (counts per second) of 3.25e+06. Also, the pTrkA counts per second, 10 ug/mL NGF alone (mAb E column) (counts per second) in experiment [14] was found to be 2.76e+06.

The values above are taken from patent publication US20190263932A1.
